Laboratory results published in the domain aggregation screens of Martell et al. (2025).

Test: soluble fraction after stress (log2 fold change); higher = more stays soluble; pooled small domains, quantitative proteomics
Details: stress: 75 degC
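Also: 20 min heating vs room temperature control held 20 min.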

Row | Sequence | soluble fraction (log2)
1 | HMEPEVEITYFKPDERKAGGAYVTVTGAVIKVDDFERLITMQDGTKIPMDDILSIDGELFLS | -0.502
2 | HMETLKEMDSKGAINASEVNVREGAGTSSSKMYSLSKGASVDVTGIKGDWYRVHTSKGTGYVLAKYVTLVS | -0.29
3 | HMDNPNVMAQVKSLLASKGLSEQEVKERLKAKGLNIDAMSDAEIAQNRSVIEQTIAELEAEKKKAG | 0.205
4 | HMAMTNEEREALISEIKQTVNNSIDLKKDISDTEIKEAITQAVFERSEKSYLSIAEKQDIITAVFNSMR | 0.378
5 | HMSFDNIKVGYISETAGYVKGISLADANEYAKLNPDTEFIFIDGDEKVRFLTINEVNGLTPKNLLRSDP | 0.229
6 | HMQQSQLDDIKSVVGGDEGYNKLREWTQANVPDETLKAFDKILDTQDPTMIKVAVEGFAAQMRQAE | -0.232
7 | HMSSEITYDKFIEMVDKDQVKEVTLQSGVLTVVPKIQKSYYQNASYKVNQMEDVDALTKRLEGTGIVFHY | 0.322
8 | HMFESQYIGKIATAITDISAFSGRLKIYDENWEARTLGEDAPEIKKGAKVKIVRHDDLTMFVEKK | -0.397
9 | HMDGRSLSHATLEEIRIRAVQRVEAGESPEVVVKALGFSRPRIYEWLALYREGGLEALRAKPV | -1.1
10 | HMSALAQDGDLVQLQGAGYKSHILRLKAGEVLQTHRGVIQHDAVIGQPWGARLQSHTGSPFYLFQPGLADL | -0.684
11 | HMNVDALIGTKGIVVQPIRPFAVGQVKVNGQVWSAVGKTPETDIEQGREVKVHAIEGVKLVVTPT | 0.501
12 | HMIYYTEEELVKRYIDFSNYLGKKEGASDVDFKKYAVEFGIPSRDHYNRKFITLFNLKIKAGYKPIRH | -0.835
13 | HMNINLDINTYTVKELEKLLKLEVPYSDNNVFEKKNLMVKMIQTSTIAETKKEELYIFLDNIYNRLTNNLE | -1.59
14 | HMGDTISVPAVRTLAYNKAMDILNAEGLKGIVADSVYDNHTAPGTVIEQNPKAGTIVKEGREVFLTIHA | 0.117
15 | HMPTSPKANFLKELPQEFTRKQAVTIGDKLNIKERTVDNYLAKLEQAGYLVKPKAGYYQKIKS | -0.0924
16 | HMKDYQGNILIQSEGDRIDKFLFKYFNSFSRTKIKNHIINGNILVNDKNTIPAYVLKINDKISYDLSTSVK | -1.9
17 | HMSGWIATGTATSTGNDVRVRSTPDATVNNNILLTLNKGNRFEIDGQTQNGFYHIKVNDTIGWISGLYVKE | -0.976
18 | HMEVVRVEPGATVRDLGEALGVPPTRIIQILMGLGEMKTVTQTLSTEEIELVAEELGRRVEV | -0.108
19 | HMNPLPALLRYFRQKAGLTQQDVAAALSISRSGYANYEEGRNIPNIEQAIKLSELLNHDFLYAYTLSS | -2.53
20 | HMALPDWLDPEAWAAWKRHRKAIRKPLTEDAVALSIRELAKLRDEGYGPTSVIENAILKGWQGLYPPK | -0.364
21 | HMILKQTHIVQELTGPIRLQEYGVGIFQQISTKSALKKALKKNQITVDGVVGSTATFIKGGEIIIYHVTE | -2.67
22 | HMSINQTIEGKKQGYWIIYGNMRNLQEYLSNEVIEEGQFKNSRKEGVWRKYFPGGQMKSEITYINGRP | -0.266
23 | HMVRDGDTFVVPKMDRFARNVEDTLHLVRELTERGVIFQMGHTVYDPHDPWSKLFLTFLAAIAEA | 0.0785
24 | HMNYGDVIEGQIMHVDRDELLVDIGSKSEGIIPAREFSTLTDEERAALSVGDHVLVFVVQAENQEGQAV | 0.297
25 | HMRWSDQKEIVTLSLDHVLVEKGRKTKEYSWREFRTFTAFEIKKSSKDQINLGFKSKGNTVIIGNF | -1.2
26 | HMKNFAPVWGEEGAEFGKEVDTGFRLRIVEKEKDVNDLFEVIQKHTIQSQWKPGSTGTESIYKRI | 0.886

Row | Sequence | soluble fraction (log2)
27 | HMSDDIPVHYRLDVNDAARALKLLTDNGFSAETAESGLNVYMTRLQSAEAARLLVENNIAVYGLTAV | -0.297
28 | HMRSHLSANLQRLRHIAGLTQKDLALAANLPRATLASLEQGEANPRLDTLLAVASALQVGLDELIAAP | -1.32
29 | HMNMIGDVIRNLRTVSSMTQTELGQRMGVIKQTISNWEKNISTPSIDAIVKLSSIFNVPTDYLL | -1.22
30 | HMGASYSQFLDQVDSGNVQKVAFGGDMRGGTSQLTYTTRGGQSSTITAPFDRDLINVLRTKNVEIVQEEP | 0.236
31 | HMIEYYDDEELDVFKGRQSDNYTNKEIEQFAEVLHTMRQDEVKGWNRSLILRSINLPDSLKDEVIMLI | -0.568
32 | HMISASDLQTYLKGMDYPARKEDLIVHAQRNNAPESVIAAIRQFSDRTYQSAADVSEEFGKI | 0.602
33 | HMNDRLFQILYLLLEKGTMTAPELSRALEVSVRTIYRDIDALSLAGVPVYATQGKNGGVSLLPNY | -2.46
34 | HMVTKQKKLVLTIIERSHGHLSAEEIFFRAREEMPNIALGTVYRNLNSLTEEGIVRRITLPGTSDRFDT | -2.91
35 | HMTISDEAMQAGRDAFIQALVAMGAEKNADAMASIEKALSADPGNKEYLATRDLIKKSMGMKK | 0.981
36 | HMENPLETYYSQWVSAIKREHPEASFVKDTDGKYYVEGLTKNRLAVIYENPHLVRLVNATTNLHVE | -0.567
37 | HMTVLVPNLTGKTLLEAEILLDQAGLKKGDVYSESNKNVPKDHIIRQKPAPNTKIQKGATIDIYRSLGPE | -0.0471
38 | HMIPEKEISYMMPDGFMPKELKIIHITESGRKQIYSAAHKPLDLVNVKAPFVPNTKVQIYINDVPIEELKI | -1.01
39 | HMYRPLYQQVYDFLVKQIAAGEWGPGESLPSEQALAGRLNVSQGTVRKALDALAADSLIDRRQGKGTYVAE | -0.236
40 | HMKFGEQIKERRQELDLTQAEVAEKLFVTRQAVSNWEHNKTYPDLNMLVKISNVYQISLDSLLR | -1.37
41 | HMKQPNSYGSVHKLPGKRRKPWRVRKTSGWLLDEQSGTVKQQYITIGYYATKQEALIALADYNENP | -1.55
42 | HMIQTKKVTFTVEPTVNFEKINISGIEFKINSGSSITAIYEKNSHNFDEVLDFLKQKGVKILDIVTED | -0.251
43 | HMGQGSAFVYYEVLPKQTEYSLTRKLGLGYADLLSLNPQLARGLQAGMVLKIPRDKAGNLEVKNDLILE | -0.643
44 | HMTIGLLISKARTNSGLTQAELATRAGTSQAAIARYESDRVSPSVSTLERVLRAAGEELVISSS | -0.209
45 | HMRKATEVPFTAFKDSIENSHGKLSKAGLARHLADEYGMSQRNMERRINNLIDNKTIKYGNEGGLVWIG | -0.104
46 | HMDKLFNRQTLGGVELTQKQIEDLNAGKAIFVEGMQRKDGEVFSSYVKLDEATGRPSYTRYNPDSP | 0.933
47 | HMASRSQTEIMHLLSSGLPKHELVTALQSLLGISKPTAYKYLSQDVSIAYDHMVKILEYPPFQRVLYQ | -1.93
48 | HMSDKLTLPVQINGVFRYTIEINPSMQKDEIIDLVKNEERTAKYKQDKEIKNVIVVPGKIVNIII | -0.339
49 | HMGGEHPIPEDWAVNEANYEHGAKFYGYTRAHVDAEAQAFRDQYAANGKKYVDWDAHFRTFMRWQNERRYG | -0.0635
50 | HMSDHKNANFTKVVKVAQELLQDEDDKAGITPTLIEEKISAVLAMNRRWAEGLDRAAVADELIRRFSIW | -0.847
51 | HMITNEDINIKKLLVVMKDTPLSANEIMDKLNIKSKETLRNMYLDPAIKKGLINLTIPDKPTSKNQKYYK | -0.426
52 | HMKQQFTREQIIELMYKAYKKHKKKLNRVEIKKEKALPSYVTIGRYLNETSIKKIWEIVLSEKE | -1.22

Row | Sequence | soluble fraction (log2)
53 | HMAQVSDTGELEGVVDGVLAANAKSVADFQAGKENAFQYLIGQVMKETKGKANPEVVATLLRTKLS | -0.523
54 | HMIFEETVFKDIAFGPKNMGLSEAEIKRRVYETAENIGLSQELMERSPFELSGGQKRRVAIAGVMAMEP | 0.268
55 | HMTSNKTVPYSELKGLISTGKIEYVGIGNTQIRAVSKSGAGIVTYTARRVIPDDTLIPELEKNGIAYGGI | -0.838
56 | HMKQGKGIIVVDGKLMPEDFNVATLSLDEVESITVLKGEKAVALYGEKAKEREVLLITTQKG | 0.427
57 | HMKMATITKRTNPSGAVVYRAQVRVKREGYPPYSESRTFSKKSLATEWAKRREFEIETNPDLLFN | -1.76
58 | HMVTNELFGTRLRAFRKEKGLTIEQLAERVGLSPNYLGDIERGKKLPSMATFIRLVNELDISADEL | -1.52
59 | HMKLARGEFEIMAKFIKEISGISLEQNKTYLIESRLSDLAESEGVKTFSDFFFKAKFNKILKEKIIDAI | -1.13
60 | HMQRSVKNNDTVQVHYTGKLTNGQIFDSSIDKQPLEFQLGQGQIIPGFEKGLIDMTVSEKKTITIPEAEAY | 0.193
61 | HMDIYLDEVNRKILHLLSQGIKTRSLREYINLSMSAIEKRKKHMKELFLVEDGKDETLLNEARNKGF | -1.88
62 | HMDDFITLVIHTPAHAQNLRNILESHGMEVRLEDFVSFKSPVAVAQRVKIRPKDLPLALKIIESGE | 0.19
63 | HMSQAVTMLKAGRLLANSKGTGAAVRDLEPGMLLYPTGQKDGTMWEVEDEMGNKGWVNSTSMQLA | 0.271
64 | HMQVEYTRGELLQDLKEENVLYATITPSRETPTGEVDFVFKDKSIKTLYVTDVSEIEGLLMDYGIDPEVKK | -0.454
65 | HMNDVEAIDDALKDLHKVSPDLAALVEMKFFGGMTEPEISEILGVSERTVRREWEKARAALLVLLE | -1.63
66 | HMSDKFNALWIILNKLDKKEKVTARSLMEDLEVSERSVYRYITTLQVAGFPVDYDRAVNSYVFSDGYTLK | -4.11
67 | HMDAEWRTLTLAPEQHQQRLDRALADSLPEFSRSYVQQLIDTGMVRVNGVLAAKSAQRVKALDQVQVELR | -0.411
68 | HMQDSSGENNPQSKLTQQQVDLLMKDLKETNVEFDKLAEKYNVSIKTIRNVNTGIAWRKNDITYPIREP | -0.407
69 | HMVLANLQAAEQGDLGIKEGEKLTILQTRPDGWWTARNANGETGLVPK | 0.186
70 | HMFISVDGLIHMGRTHLVILGGVEFARGDMIPETGEVVKSIGADSVVLELPDTGMRRTLNFV | -2.97
71 | HMARTGSEELVGALATVREPLAPWGQVFVQGALWRARSADGGPVDAGQQVVVRAVEGLTLVVEPRD | -0.143
72 | HMSWEQELIEKANEIIDLYPEKRSALGPLLYLAQERDGYISDESIVEISNLVGITEVQVKSVASFYSMYK | -3.62
73 | HMGKSKAAQSSLVRSIMHQISDKNRGPMPLSEIIDRASIQSIDEAIVRSLVSRMKEQGEIYEPSLGTYEF | -0.105
74 | HMVKGIVPNLIGKTQDEAKQMAEEYGFSIGTVSEKASDKPKGTVIEQSPKAGAKASGVTSINIVVSDGS | -0.121
75 | HMTVEVFQSLVQTFREMSPRKAASILEELKRDLAVEILLHMPEDGVAAILARMDPARAARLTEQLALEKD | -1.86
76 | HMIAALEGKQAMVLDQVSLHHGQVKLGGEVWTARPLNDQDVYEPGDRVTVMRIDGATAVVWRN | -0.472
77 | HMNVRAYKVSKESELTVEEKLEAVRGYGVADLLYVIREFEENPGKYEPEVIKLIVQQLTDKGIM | 0.0392
